B1: seq6 m6 (dsDNA)
DNA 1: CGCTGCTCTTACCCGGAGGAGCATCACCCTTGTGTGATCACGCGTATCGCGCTACTCTG
DNA 2: CAGAGTAGCGCGATACGCGTGATCACACAAGGGTGATGCTCCTCCGGGTAAGAGCAGCG
B2: seq6 m5 (dsDNA)
DNA 1: CTGCTCAAAGATCGACTAGTATATCACAGGTCCGTGATATGACGTATACCTTTGGTGCA
DNA 2: TGCACCAAAGGTATACGTCATATCACGGACCTGTGATATACTAGTCGATCTTTGAGCAG
B3: seq6 m4 (dsDNA)
DNA 1: CGCTGCTCTTACCCGGAGGAATATCACAGGTCCGTGATATCGCGTATCGCGCTACTCTG
DNA 2: CAGAGTAGCGCGATACGCGATATCACGGACCTGTGATATTCCTCCGGGTAAGAGCAGCG

Target: T1, HigA2 (Mycobacterium tuberculosis H37Rv, UniProt O53467 1-101)
T1 sequence: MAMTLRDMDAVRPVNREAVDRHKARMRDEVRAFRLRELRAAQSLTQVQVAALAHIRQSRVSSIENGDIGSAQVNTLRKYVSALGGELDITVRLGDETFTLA
Test: EMSA; EMSA: 20 mM Tris-HCl, 150 mM NaCl, pH 8.0, 37 °C, 5 min, HigA2 1 uM (titrated in Fig 4); agarose or native PAGE. Pull-down: streptavidin beads, 4 °C, PBS washes
Conditions: protein: recombinant; tags: C-terminal 6xHis; chain copies: 2

Binder	binding result
B1	binds
B2	binds
B3	binds
